Assays:
CD4+ T-cells = test: Luciferase-RDE bioluminescence in anti-CD19 CAR T-cells, resting vs Raji co-culture; format: cell-based; settings: for increase in bioluminescence with CAR stimulation: Raji co-culture 24 h vs resting
Source text: Combinations of these inserts/cassettes shown in FIG. 3 were placed in the similar lenti virus constructs. The anti-CD19 CAR cassette and the insert with the luciferase-RDE are transcribed in opposite directions, and the control regions for each are located in between the two insert/cassettes. The control region for the Luciferase-RDE insert and Luciferase-3′-UTR were either a MinP promoter or an NFAT promoter. The control region of the anti-CD19 CAR cassette was the MND promoter, and CD4+ T-cells were transduced with the bicistronic construct.
The transduced T cells were allowed to return to resting state, and then were tested after stimulation as follows. For the ‘no stimulation’ set, transduced T-cells were incubated for 24 h alone in medium. For the ‘Raji co-culture’ set CD19+ Raji B cells were incubated with the transduced T cells for 24 h. At 24 h, the T cells were stained for CD25 and CD69, which are activation markers, and subject to flow cytometry to measure these markers and luciferase expression in the T cells.

T-cells = test: Removal of microRNA binding sites from an RDE, expression from constructs; format: cell-based; settings: MIR186 micro-RNA sites removed from the 3′-UTR of IL-2
Source text: The AU-rich element from the 3′-UTR of IL-2 has mir-181 and mir 186 microRNA binding sites. Different combinations of the microRNA sites were removed from the 3′-UTR of IL-2. When the MIR186 micro-RNA sites were removed from the 3′-UTR of IL-2 the dynamic range of expression from constructs with this UTR increased 50 fold. The modified IL-2, 3′-UTR replaces CTT in the sequence with GAA and is shown below (the new GAA is underlined in the sequence):
Different combinations of the micro-RNA sites were removed from the 3′UTR of IFNg and tested for increased expression. When the mir125 micro-RNA sites were removed from the 3′-UTR of IFN-γ the expression rate from constructs with this UTR is increased.
Expression of GFP in T-cells, transfected with the RDE-GFP plus the microRNA sites, is compared to expression of GFP in T-cells with the RDE-GFP in which the microRNA sites have been removed, following activation with CD3/CD28 beads for 24 hours. The removal of the microRNA sites increased expression of the GFP by a factor of between 2-5 after 24 hours, relative to the cells with microRNA sites.

B1: RDE3: 3′-UTR of IL-2 modified to remove the mir186 sites (SEQ ID NO: 22) (nucleic acid, listed as Homo sapiens)
DNA: TAATTAAGTGCTTCCCACTTAAAACATATCAGGCCTTCTATTTATTTAAATATTTAAATTTTATATTTATTGTTGAATGTATGGTTTGCTACCTATTGTAACTATTATTCTTAATCTTAAAACTATAAATATGGATCTTTTATGATTGAATTTGTAAGCCCTAGGGGCTCTAAAATGGTTTCACTTATTTATCCCAAAATATTTATTATTATGTTGAATGTTAAATATAGTATCTATGTAGATTGGTTAGTAAAACTATTTAATAAATTTGATAAATATAAA
increase in bioluminescence with CAR stimulation (CD4+ T-cells; MinP promoter): 1.4 fold
increase in bioluminescence with CAR stimulation (CD4+ T-cells; NFAT promoter): 1.3 fold
amount of bioluminescence, rank among RDE constructs (CD4+ T-cells; with either promoter): highest amount of bioluminescence
increase of dynamic range of expression (T-cells): 50 fold

From patent US11648277B2, “Combination therapy with gold controlled transgenes” (Chimera Bioengineering, Inc., priority 2019, dated 2023)
